For orientation: Kd means the equilibrium constant for the complex coming apart.

For this experiment, the target named is T1, activated C1s–CCP1–CCP2–SP (human, UniProt P09871 292-688).
T1 construct: human complement C1s, C-terminal domains CCP1, CCP2 and serine protease (SP); Cleaved by C1r into two chains (confirmed by reducing SDS-PAGE); Tag removal is inferred: only the c-Myc S632A form 'was not subjected to His-TEV cleavage'; also called wildtype C1s–CCP1–CCP2–SP
T1 sequence: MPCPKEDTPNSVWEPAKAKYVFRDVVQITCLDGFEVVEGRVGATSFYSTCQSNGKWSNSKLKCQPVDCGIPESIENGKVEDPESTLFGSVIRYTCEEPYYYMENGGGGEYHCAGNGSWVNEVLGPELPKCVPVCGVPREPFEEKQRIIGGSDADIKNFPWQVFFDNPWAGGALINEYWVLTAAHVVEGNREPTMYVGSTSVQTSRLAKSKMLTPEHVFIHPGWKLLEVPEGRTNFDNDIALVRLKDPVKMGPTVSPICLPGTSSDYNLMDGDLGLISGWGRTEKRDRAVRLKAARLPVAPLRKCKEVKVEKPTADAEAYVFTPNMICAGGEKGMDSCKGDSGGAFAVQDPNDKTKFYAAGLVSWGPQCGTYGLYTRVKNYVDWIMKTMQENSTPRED
In words: SPR; Elp truncation amine-coupled to a CMD200 chip; multicycle twofold injection series of C1s enzyme or activated C1s–CCP1–CCP2–SP constructs from 200 nM; HBS-T Ca2+ (10 mM Hepes pH 7.3, 140 mM NaCl, 0.005% Tween-20, 5 mM CaCl2), 30 ul/min; K_(D, kin) from a kinetic and K_(D, ss) from a steady-state 1:1 (Langmuir) fit; triplicate. Conditions: both partners purified. On the technique in general: In SPR one partner is held on a chip, and binding of the other changes the refractive index at the surface.

B1: ElpB_(182–378) (domain or fragment)
chain: QERKAKAEKEAKEKAERQKQEEQQKRKAEKEREEQRKEAEKRQVDNEIRTLTGKIDEINRNIDVIKEQTSVGAQGVIDRITGPVYDDFTDGNKAIYKTWGDLEDDNDEGLGKLLKELSDTRHNLRTKLNEGNKAYIIDTRSTEPQLKENVSVSEIKSDLDELKSKLEEVKEYLEDKDNFEEIKEYVAGSEDNYDEED
notes: ElpB (ErpB) of B. burgdorferi, residues 182-378; also called C-terminal domain of ElpB; not shown: His6 (from the vector pT7HMT), N-terminal, cleaved; c-Myc (from the vector pT7HMT), N-terminal, cleaved
In turn, B1 came in with a Kd of 360 ± 17 nM.
